Blank lines part the entries; values can stand above or below the binder they belong to.
Columns and labels:
4H687-AA = biological target: T1, 4H687-AA; assay: two-hybrid library CCmax;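 note: natural log of median RNA to DNA barcode read ratio; higher means stronger binding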
T1 chain: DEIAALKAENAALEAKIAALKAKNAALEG

4H953-AA = biological target: T2, 4H953-AA; assay: two-hybrid library CCmax; settings: mean of both orientations;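 note: natural log of median RNA to DNA barcode read ratio; higher means stronger binding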
T2 chain: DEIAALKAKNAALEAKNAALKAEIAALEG

4H797-AA = biological target: T3, 4H797-AA; assay: two-hybrid library CCmax;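 note: natural log of median RNA to DNA barcode read ratio; higher means stronger binding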
T3 chain: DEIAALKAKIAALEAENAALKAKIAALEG

4H717-AA = biological target: T4, 4H717-AA; assay: two-hybrid library CCmax; settings: mean of both orientations;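 note: natural log of median RNA to DNA barcode read ratio; higher means stronger binding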
T4 chain: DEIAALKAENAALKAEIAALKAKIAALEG

4H883-AA = biological target: T5, 4H883-AA; assay: two-hybrid library CCmax; settings: mean of both orientations;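 note: natural log of median RNA to DNA barcode read ratio; higher means stronger binding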
T5 chain: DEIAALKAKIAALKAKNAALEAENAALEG

4H918-AA = biological target: T6, 4H918-AA; assay: two-hybrid library CCmax; settings: mean of both orientations;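 note: natural log of median RNA to DNA barcode read ratio; higher means stronger binding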
T6 chain: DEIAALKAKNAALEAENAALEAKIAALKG

4H967-AA = biological target: T7, 4H967-AA; assay: two-hybrid library CCmax; settings: mean of both orientations
T7 chain: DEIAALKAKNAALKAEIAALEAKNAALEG

O6-bA = biological target: T8, O6-bA; assay: two-hybrid library CCNG1
T8 chain: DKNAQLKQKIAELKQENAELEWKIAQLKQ

O5-bA = biological target: T9, O5-bA; assay: two-hybrid library CCNG1
T9 chain: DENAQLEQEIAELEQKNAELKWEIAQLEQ

O4-bA = biological target: T10, O4-bA; assay: two-hybrid library CCNG1
T10 chain: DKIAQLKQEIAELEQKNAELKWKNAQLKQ

O9-bA = biological target: T11, O9-bA; assay: two-hybrid library CCNG1
T11 chain: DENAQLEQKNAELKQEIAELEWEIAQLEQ

O7-bA = biological target: T12, O7-bA; assay: two-hybrid library CCNG1
T12 chain: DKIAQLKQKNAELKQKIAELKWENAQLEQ

O8-bA = biological target: T13, O8-bA; assay: two-hybrid library CCNG1
T13 chain: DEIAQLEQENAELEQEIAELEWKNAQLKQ

4H3427-bH = biological target: T14, 4H3427-bH; assay: two-hybrid library CCNG1
T14 chain: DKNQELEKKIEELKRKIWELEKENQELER

4H883-bH = biological target: T15, 4H883-bH; assay: two-hybrid library CCNG1
T15 chain: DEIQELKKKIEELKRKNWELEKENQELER

4H338-bH = biological target: T16, 4H338-bH; assay: two-hybrid library CCNG1
T16 chain: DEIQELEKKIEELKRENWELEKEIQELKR

4H72-bH = biological target: T17, 4H72-bH; assay: two-hybrid library CCNG1
T17 chain: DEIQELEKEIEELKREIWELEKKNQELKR

4H3855-bH = biological target: T18, 4H3855-bH; assay: two-hybrid library CCNG1
T18 chain: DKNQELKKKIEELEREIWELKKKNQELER

4H3606-bH = biological target: T19, 4H3606-bH; assay: two-hybrid library CCNG1
T19 chain: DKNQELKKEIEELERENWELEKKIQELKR

4H3782-bH = biological target: T20, 4H3782-bH; assay: two-hybrid library CCNG1
T20 chain: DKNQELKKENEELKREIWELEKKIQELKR

4H953-bH = biological target: T21, 4H953-bH; assay: two-hybrid library CCNG1
T21 chain: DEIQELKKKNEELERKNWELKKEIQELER

4H908-bH = biological target: T22, 4H908-bH; assay: two-hybrid library CCNG1
T22 chain: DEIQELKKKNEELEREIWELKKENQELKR

4H4001-bH = biological target: T23, 4H4001-bH; assay: two-hybrid library CCNG1
T23 chain: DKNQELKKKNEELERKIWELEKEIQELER

4H3354-bH = biological target: T24, 4H3354-bH; assay: two-hybrid library CCNG1
T24 chain: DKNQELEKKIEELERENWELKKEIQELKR

4H754-bN = biological target: T25, 4H754-bN; assay: two-hybrid library CCNG1
T25 chain: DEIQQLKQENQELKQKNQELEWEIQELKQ

4H797-bH = biological target: T26, 4H797-bH; assay: two-hybrid library CCNG1
T26 chain: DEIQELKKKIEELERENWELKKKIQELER

4H331-bH = biological target: T27, 4H331-bH; assay: two-hybrid library CCNG1
T27 chain: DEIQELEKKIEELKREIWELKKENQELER

4H717-bH = biological target: T28, 4H717-bH; assay: two-hybrid library CCNG1
T28 chain: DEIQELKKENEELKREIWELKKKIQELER

4H370-bH = biological target: T29, 4H370-bH; assay: two-hybrid library CCNG1
T29 chain: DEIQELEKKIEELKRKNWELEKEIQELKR

4H754-bH = biological target: T30, 4H754-bH; assay: two-hybrid library CCNG1
T30 chain: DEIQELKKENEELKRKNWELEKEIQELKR

4H462-bH = biological target: T31, 4H462-bH; assay: two-hybrid library CCNG1
T31 chain: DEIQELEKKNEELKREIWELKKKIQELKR

4H607-bH = biological target: T32, 4H607-bH; assay: two-hybrid library CCNG1
T32 chain: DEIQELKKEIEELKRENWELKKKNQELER

4H454-bH = biological target: T33, 4H454-bH; assay: two-hybrid library CCNG1
T33 chain: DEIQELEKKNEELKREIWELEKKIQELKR

4H568-bH = biological target: T34, 4H568-bH; assay: two-hybrid library CCNG1
T34 chain: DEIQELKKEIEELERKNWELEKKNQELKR

4H967-bH = biological target: T35, 4H967-bH; assay: two-hybrid library CCNG1
T35 chain: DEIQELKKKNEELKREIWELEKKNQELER

4H687-bH = biological target: T36, 4H687-bH; assay: two-hybrid library CCNG1
T36 chain: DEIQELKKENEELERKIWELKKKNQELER

4H918-bH = biological target: T37, 4H918-bH; assay: two-hybrid library CCNG1
T37 chain: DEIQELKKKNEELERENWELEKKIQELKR

4H3843-bH = biological target: T38, 4H3843-bH; assay: two-hybrid library CCNG1
T38 chain: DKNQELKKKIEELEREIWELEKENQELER

4H730-bN = biological target: T39, 4H730-bN; assay: two-hybrid library CCNG1
T39 chain: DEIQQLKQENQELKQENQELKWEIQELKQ

4H3381-bN = biological target: T40, 4H3381-bN; assay: two-hybrid library CCNG1
T40 chain: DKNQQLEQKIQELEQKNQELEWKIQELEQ

4H3364-bN = biological target: T41, 4H3364-bN; assay: two-hybrid library CCNG1
T41 chain: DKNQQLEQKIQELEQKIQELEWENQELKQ

4H796-bN = biological target: T42, 4H796-bN; assay: two-hybrid library CCNG1
T42 chain: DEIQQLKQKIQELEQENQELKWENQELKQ

4H932-bN = biological target: T43, 4H932-bN; assay: two-hybrid library CCNG1
T43 chain: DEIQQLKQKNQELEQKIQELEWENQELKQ

4H56-bN = biological target: T44, 4H56-bN; assay: two-hybrid library CCNG1
T44 chain: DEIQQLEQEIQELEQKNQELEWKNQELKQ

4H349-bN = biological target: T45, 4H349-bN; assay: two-hybrid library CCNG1
T45 chain: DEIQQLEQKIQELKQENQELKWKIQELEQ

4H949-bN = biological target: T46, 4H949-bN; assay: two-hybrid library CCNG1
T46 chain: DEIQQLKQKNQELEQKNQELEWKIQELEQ

Binder: DKIAQLKQEIAELEQKNAELKWKNAQLKQ [O4-bA]
interaction score (O6-bA): 1.17 | interaction score (O5-bA): -0.0834 | interaction score (O4-bA): 0.158 | interaction score (O9-bA): -0.232 | interaction score (O7-bA): 0.351 | interaction score (O8-bA): -1.68

Binder: DEIQELEKKIEELKREIWELKKENQELER [4H331-bH]
interaction score (4H3427-bH): 1.6 | interaction score (4H883-bH): 0.193 | interaction score (4H338-bH): 0.213 | interaction score (4H72-bH): 0.733 | interaction score (4H3855-bH): 0.334 | interaction score (4H3606-bH): 0.467 | interaction score (4H3782-bH): -0.0752 | interaction score (4H953-bH): -0.344 | interaction score (4H908-bH): -0.0604 | interaction score (4H4001-bH): 0.891 | interaction score (4H3354-bH): -0.721 | interaction score (4H754-bN): -1.25 | interaction score (4H797-bH): -0.0604 | interaction score (4H331-bH): 1.45 | interaction score (4H717-bH): -1.1 | interaction score (4H370-bH): -0.325 | interaction score (4H754-bH): -1.42 | interaction score (4H462-bH): 0.445 | interaction score (4H607-bH): -1.89 | interaction score (4H454-bH): -0.0612 | interaction score (4H568-bH): -1.97 | interaction score (4H967-bH): -0.299 | interaction score (4H687-bH): -0.531 | interaction score (4H918-bH): -1.11 | interaction score (4H3843-bH): 0.837

The remaining lines, values ahead:

interaction score (4H687-AA): -1.1 | interaction score (4H953-AA): -1.39 | interaction score (4H797-AA): -1.46 | interaction score (4H717-AA): -0.487 | interaction score (4H883-AA): -1.77 | interaction score (4H918-AA): -0.666 | interaction score (4H967-AA): 1.97
Binder: DEIAALKAENAALEAKIAALKAKNAALEG [4H687-AA]

interaction score (4H730-bN): 0.217 | interaction score (4H3381-bN): -0.731 | interaction score (4H3364-bN): 0.858 | interaction score (4H796-bN): 0.309 | interaction score (O5-bA): -0.987 | interaction score (4H932-bN): -1.67 | interaction score (4H56-bN): -0.197 | interaction score (4H349-bN): -0.763 | interaction score (4H949-bN): -1.23
Binder: DKNQQLEQKIQELEQKIQELEWENQELKQ [4H3364-bN]

Source: paper PMC10397247
